This note sets out measurements from patent US20250346673A1 (DUALITY BIOLOGICS SUZHOU, published 2025).

Where a chain is given by its changes, count along the chain named.

What is called EC50 is the concentration that produces a half-maximal response. Low readings indicate a more potent agent, high ones a less potent agent. Usually Kd stands for the free concentration of one partner at which half of the binding sites on the other are occupied at equilibrium, for simple one-to-one binding. Broadly, the koff is the rate constant with which the complex falls apart. Usually kon stands for the second-order rate constant of association.

To fix the notation:
B1: Hu033-02 (antibody, IgG1, V domains shown)
VH: EVQLVESGGGLVKPGGSLRLSCAASGFTFSSYGMSWVRQAPGKGLEWVSTISSGDSYTYYPDSVKGRFTISRDNAKNSLYLQMNSLRAEDTAVYYCARQIYYDYAYYFDFWGQGTTVTVSS
VL: DIVLTQSPASLAVSPGQRATITCRASESVSFRTSHLMHWYQQKPGQPPKLLIYGASNLESGVPARFSGSGSETDFTLTINPVEAEDTANYYCQQSIEDPPTFGGGTKVEIK
notes: Humanized IgG1; also called Hu033-02(BM2)
B2: Hu033-16 (antibody, IgG1, V domains shown)
VH: B1 VH with S30R, G44R
VL: EIVLTQSPATLSLSPGERATLSCRASESVSFRTSHLMHWYQQKPGQAPRLLIYGASNLESGIPARFSGSGSETDFTLTISRLEPEDFAVYFCQQSIEDPPTFGGGTKVEIK
notes: Humanized IgG1; also called Hu033-16(BM4)
B3: Hu033-04 (antibody, IgG1, V domains shown)
VH: B1 VH
VL: DIVMTQSPDSLAVSLGERATINCRASESVSFRTSHLMHWYQQKPGQPPKLLIYGASNLESGVPDRFSGSGSGTDFTLTISSLQAEDVAVYYCQQSIEDPPTFGGGTKVEIK
notes: Humanized IgG1; also called Hu033-04(BM0)
B4: Hu033-12 (antibody, IgG1, V domains shown)
VH: B1 VH with S30R, G44R
VL: B3 VL
notes: Humanized IgG1; also called Hu033-12(BM2)
B5: Hu033-08 (antibody, IgG1, V domains shown)
VH: B1 VH
VL: B2 VL
notes: Humanized IgG1; also called Hu033-08(BM2)
B6: Hu033-13 (antibody, IgG1, V domains shown)
VH: B1 VH with S30R, G44R
VL: B3 VL with M4L, Y91F
notes: Humanized IgG1; also called Hu033-13(BM4)
B7: Hu033-06 (antibody, IgG1, V domains shown)
VH: B1 VH
VL: B3 VL with M4L, G72E, S81P, Y91F
notes: Humanized IgG1; also called Hu033-06(BM3)
B8: Hu033-15 (antibody, IgG1, V domains shown)
VH: B1 VH with S30R, G44R
VL: B2 VL with E72G, F91Y
notes: Humanized IgG1; also called Hu033-15(BM2)

One assay concerns the target T1, human BDCA2 (human, UniProt Q8WTT0 1-213).
T1 sequence (looked up): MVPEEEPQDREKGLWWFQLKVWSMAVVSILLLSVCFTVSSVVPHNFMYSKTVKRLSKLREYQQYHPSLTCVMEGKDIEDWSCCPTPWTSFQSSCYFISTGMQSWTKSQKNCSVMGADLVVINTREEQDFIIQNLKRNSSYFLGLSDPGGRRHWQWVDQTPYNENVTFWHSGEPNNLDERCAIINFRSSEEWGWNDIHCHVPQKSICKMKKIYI
The experiment in a line: cell-based or functional assay.
As to B1, the “EC50 (nM), inhibition of CpG-A stimulated IFNα release from human PBMC” value (“EC50 (nM), inhibition” for short) turned out to be 0.02 nM.

As for B2, the “EC50 (nM), inhibition” value was 0.01 nM.

On to B3, for which the “EC50 (nM), inhibition” value turned out to be 0.03 nM.

With B4, the “EC50 (nM), inhibition” value came to 0.02 nM.

B5: the “EC50 (nM), inhibition” value was determined as 0.02 nM.

Consider B6, for which the “EC50 (nM), inhibition” value stood at 0.01 nM.

As for B7, the “EC50 (nM), inhibition” value came to 0.02 nM.

On to B8, for which the “EC50 (nM), inhibition” value is 0.02 nM.

A further assay concerns the target T1, human BDCA2. The experiment in a line: FACS, CHOK1-humanBDCA2 cells. The procedure: (§1) The cells were recovered and resuspended to 2×10⁶/mL with FACS buffer (PBS+2% FBS). The resuspended cells were added to 3799 cell plates at 100 μL/well, and the supernatant was discarded after centrifugation at 300 g. […] The cells were incubated at 4° C. for 1 h. The incubated cells were centrifuged at […] for 5 min and washed twice with FACS buffer. 100 μL Goat anti-Human IgG (H+L) Cross-Adsorbed Secondary Antibody, Alexa Fluor 488 (Sigma, A11013; 1:1000) secondary antibody was added, washed twice with FACS buffer after incubation at 4° C. for 1 h. The cells were resuspended with PBS, then the fluorescence signal of antibodies bound to cell surface was analyzed with FACS (BD FACS CantoTM II) instrument and curves were fitted with GraphPad Prism6 to calculate EC₅₀ values for antibodies binding to BDCA2 antigen.
A general note: A flow cytometer gives signals particle by particle.
Turning to B1, the EC50 is 0.44 nM.

B2: the concentration for a half-maximal effect (EC50) was 0.63 nM.

In the case of B3, a half-maximal response (EC50) required 0.61 nM.

In turn, B4 displayed an EC50 of 0.45 nM.

In the case of B5, the EC50 came out at 0.62 nM.

As for B6, the midpoint of the response, the EC50, lay at 0.68 nM.

B7: the response was half-maximal at 0.62 nM (EC50).

The molecule B8 yielded an EC50 of 0.76 nM.

The target in a further assay is T2, cynomolgus BDCA2 (cynomolgus monkey, UniProt A0A2K5UWP4 1-212).
T2 construct: whole, on cells; also called Cyno BDCA2; cynoBDCA2
T2 sequence: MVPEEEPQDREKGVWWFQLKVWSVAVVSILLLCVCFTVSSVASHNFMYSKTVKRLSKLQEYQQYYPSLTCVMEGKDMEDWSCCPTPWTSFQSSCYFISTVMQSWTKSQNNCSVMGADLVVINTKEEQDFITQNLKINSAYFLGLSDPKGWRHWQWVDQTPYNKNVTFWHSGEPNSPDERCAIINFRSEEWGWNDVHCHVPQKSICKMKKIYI
The experiment in a line: FACS, 293F-cynoBDCA2 cells. The procedure: as §1
B1 came in with a concentration for a half-maximal effect (EC50) of 1.2 nM.

The molecule B2 had an EC50 of 1.37 nM.

With B3, it took 1.33 nM to reach a half-maximal effect (EC50).

Molecule B4 showed an EC50 of 1.07 nM.

With B5, it took 1.53 nM to reach a half-maximal effect (EC50).

As for B6, the EC50 is 1.13 nM.

B7 displayed an EC50 of 1.41 nM.

B8 returned a concentration giving a half-maximal response (EC50) of 1.27 nM.

Another assay addresses T3, Recombinant Human BDCA2 (human, UniProt Q8WTT0 45-213, limits assumed).
T3 construct: also called hBDCA2 (SPR analyte); human BDCA2 antigen
T3 sequence (looked up): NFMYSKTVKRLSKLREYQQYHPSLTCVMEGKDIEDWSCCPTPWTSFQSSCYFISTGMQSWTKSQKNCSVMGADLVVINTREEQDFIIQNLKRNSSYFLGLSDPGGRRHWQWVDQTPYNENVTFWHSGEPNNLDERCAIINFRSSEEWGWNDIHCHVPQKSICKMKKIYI
As to the kind of experiment: SPR (BIAcore), antibody captured by anti-human IgG (Fc), hBDCA2 as analyte, 1:1 model. The protocol:
Then 1 M ethanolamine was injected at 10 μL/min flow rate for 420 seconds, and the excess active carboxyl groups on chip were blocked. The humanized antibodies were injected into a detection channel flow cell at flow rate of 10 μL/min for 60 s for capture after diluting to 1 μg/mL using running buffer. […] The sample hBDCA2 to be tested of each concentration gradient was injected into the detection channel at 30 μL/min flow rate, two samples at 0 concentration were used to remove background signal. The binding and dissociation times between antigen and antibody were 180 and 400 sec, respectively. An analysis of data was performed using Biacore Insight Evaluation Software (Version 2.0. 15.12933). A 1:1 binding model was selected for curve fitting and kinetic parameters were calculated after subtraction of signal of the reference channel (flow cell 1) and at 0 concentration.
(In general: SPR reads the build-up and loss of mass on a sensor chip optically.)
With B1, the dissociation constant Kd stood at 0.239 nM, the koff came to 0.000169 s⁻¹ and the kon turned out to be 707000 M⁻¹ s⁻¹.

B2: the Kd is 0.191 nM, the koff came to 0.000108 s⁻¹ and the kon was determined as 569000 M⁻¹ s⁻¹.

On to B3, for which the dissociation constant (Kd) turned out to be 0.323 nM, the koff is 0.000193 s⁻¹ and the on-rate constant (kon) worked out at 598000 M⁻¹ s⁻¹.

As for B4, the Kd was 0.283 nM, the koff was 0.000149 s⁻¹ and the kon is 527000 M⁻¹ s⁻¹.

Take B5: the Kd worked out at 0.229 nM, the koff amounted to 0.000169 s⁻¹ and the kon came out at 740000 M⁻¹ s⁻¹.

Take B6: the Kd is 0.338 nM, the koff was 0.000153 s⁻¹ and the on-rate (kon) is 454000 M⁻¹ s⁻¹.

As for B7, the Kd was found to be 0.17 nM, the koff turned out to be 0.000125 s⁻¹ and the kon stood at 733000 M⁻¹ s⁻¹.

As to B8, the dissociation constant (Kd) was determined as 0.467 nM, the off-rate (koff) turned out to be 0.000227 s⁻¹ and the kon amounted to 487000 M⁻¹ s⁻¹.
